± gives the half width of the 95% confidence interval.
Assays:
[1] = folding stability dG unfold (combined trypsin and chymotrypsin); higher = more stable
Procedure, shortened: (§1)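 Designed mini-proteins (under 80 residues, no cysteine) in a PA-tagged cDNA display construct were digested with trypsin and chymotrypsin. Each protease was used at 11 concentrations (threefold dilutions) plus a no-protease condition, followed by sequencing. K50 was inferred by Bayesian fitting of sequencing counts, and unfolding free energy was derived against a sequence-predicted unfolded-state K50 and a shared folded-state K50, per protease or combined. Only designs with AlphaFold2 dimer inter-PAE above 15 were kept.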

[2] = folding stability dG unfold from trypsin proteolysis; higher = more stable
Procedure, shortened: as §1

[3] = folding stability dG unfold from chymotrypsin proteolysis; higher = more stable
Procedure, shortened: as §1

Sequence	folding stability dG unfold [1] [kcal/mol]	folding stability dG unfold [2] [kcal/mol]	folding stability dG unfold [3] [kcal/mol]
SAGGSAGGSGDDIPTLTLVIKVDPNAITPEDIEEIKQAFLDLGYKEVTVTRNPETGYLVVELGSAGGSAGGS [r12_1025_TrMRF]	3.01 ± 0.21	3.03 ± 0.25	2.93 ± 0.11
SAGGSAGGSGFKIVKVDTETGYVYVEVPKSAEKELEKLPSVEKVEEKEDSVLYRLRIPPFAALSAGGSAGGS [r12_694_TrMRF]	1.81 ± 0.19	1.78 ± 0.069	1.95 ± 0.086
SAGGSAGGSGGMMSRTINVSVNPAPGESPEDIVKALAAELGVTIKSVKYSTSSSSLTFTIEVVSAGGSAGGS [r20_188_JUSTAS]	2.16 ± 0.068	1.05 ± 0.04	2.48 ± 0.077
SAGGSAGGSGIKIIMEFIFPDDGYIFKIEIDIKPNPENGEPVIEMKIEMYPIDPGQPPDLKDLSAGGSAGGS [r12_700_TrROS]	3.26 ± 0.2	2.48 ± 0.11	3.45 ± 0.071
SAGGSAGGSGIKITEYKINPETGTIEKTEIYIKPIPNTNKLKIEKKTKSIPILPDQKPDLSLDSAGGSAGGS [r12_700_TrMRF]	0.412 ± 0.27	-0.235 ± 0.18	0.809 ± 0.36
SAGGSAGGSGITIPAGSPEKVYELLSALEKLGFKPKKVSVSGNYVIVDFENGIPVNIEINPGKSAGGSAGGS [r20_93_TrMRF]	2.38 ± 0.052	1.06 ± 0.059	2.85 ± 0.039
SAGGSAGGSGKKRKVEIPIFFSGPPEVADNLAKTLAQELGLPPEDVDIEIKVIPIMPPEQMAESAGGSAGGS [r12_1066_TrROS]	0.721 ± 0.076	0.477 ± 0.054	0.818 ± 0.046
SAGGSAGGSGLTKELAKKFNVTAIEEFENGLVKILTKPPIKGNPYLAIIDPKNKKVYIIPLNPSAGGSAGGS [r12_944_TrMRF]	1.29 ± 0.071	0.849 ± 0.037	1.62 ± 0.082
SAGGSAGGSGMEKIVVEVKFPDGTVETYEFPAGVPVNIDPAVTGDVKITTLDPEGKTTEYVLKSAGGSAGGS [r12_380_JUSTAS]	-0.118 ± 0.1	-0.0804 ± 0.046	-0.297 ± 0.2
SAGGSAGGSGMELEKLLESVKEVKVEPTSSGEKEVTITLKPPEPSETEVKIDKETYEKLLELKSAGGSAGGS [r12_466_JUSTAS]	0.137 ± 0.12	-0.907 ± 0.21	0.404 ± 0.024
SAGGSAGGSGMKTLTIEFPNVTLEEAKEAVLKLLEELGLEPIPLEKVTITYHPENPNVITVVESAGGSAGGS [r12_122_JUSTAS]	1.35 ± 0.17	1.5 ± 0.098	1.14 ± 0.12
SAGGSAGGSGPMPVVVPVEVVVAPGEVDAYVARLRAEGLEVLSVETEPDPEGGTRVTVTVRRLSAGGSAGGS [r12_905_JUSTAS]	3.41 ± 0.059	2.74 ± 0.054	3.72 ± 0.057
SAGGSAGGSGSLRLRVRSPEQALEWLRRVLPPDFDLTPEELEELVRFLLATSEVTPDGYLLLRSAGGSAGGS [r12_983_TrMRF]	2.32 ± 0.042	1.826 ± 0.018	2.52 ± 0.051
SAGGSAGGSGSMKEIEIEIPKDDPQLIEKIKEELKQKNSKKVEVKEIKKTPEGKYKVKIIIEESAGGSAGGS [r12_91_JUSTAS]	0.879 ± 0.17	1.03 ± 0.1	0.901 ± 0.081
SAGGSAGGSGSMPVTIEIEYKDPKSDKTFKKTILVPPSVTDPEAVAEEVAKELGPVEKVKITSSAGGSAGGS [r12_942_JUSTAS]	0.0443 ± 0.48	0.595 ± 0.061	-0.44 ± 0.24
SAGGSAGGSGSSLVSETVEEGPGLTTRTLTYRLPGAPGVLLERTVTYDPEGNELATSLTVVPESAGGSAGGS [r12_62_JUSTAS]	0.15 ± 0.059	0.0552 ± 0.052	0.0935 ± 0.076
SAGGSAGGSGWIKIEFWIPIPIPVMKFDPGDGNWEMEPVTIMIRVEIEIPIPPSPEDLEKNGLSAGGSAGGS [r20_172_TrROS]	2.57 ± 0.27	2.2 ± 0.15	2.82 ± 0.069
SAGGSAGGSGWRPARVVRVERYRDPVNPRWYYRVEAELPDRRVTLVVPENAPVDEDGVLLIPFSAGGSAGGS [r20_49_TrMRF]	1.35 ± 0.034	1.09 ± 0.027	1.45 ± 0.042
SAGGSAGGSGWYFHFEVSIWVMEFKYPGPDGKTMTMWFIMIEIKIEIVPPPPITPEDAAKMNGSAGGSAGGS [r12_1060_TrROS]	3.76 ± 0.16	2.66 ± 0.06	4.24 ± 0.087
SAGGSAGGSHEIIIRVDSPEDAIEQAKSILRDHGIPEGFEPVPIEVLERDPNNGYYYVQIEVKSAGGSAGGS [r12_999_TrROS]	0.178 ± 0.1	0.601 ± 0.026	-0.453 ± 0.077
SAGGSAGGSHTIEIWIVKFPPDDFKGKTIEEMAKKFGDPDMPVEIVPIEITLPPDALKALLKNSAGGSAGGS [r12_178_TrROS]	0.846 ± 0.059	0.768 ± 0.033	0.841 ± 0.061

From the supplement of paper PMC12764529
